Measurements reported in patent US20220000982A1 (Novo Nordisk, published 2022).
*1 amine or outer side, *2 acyl side, *3 side chain or, on linkers, in order; H or OH if unused. Where no end group is shown, it is not given here. Side-chain parts run from the residue outwards. [ ]: non-standard residue; d: D form. The star is where a group is joined. C18 diacid = O=C(O)CCCCCCCCCCCCCCCCC(=O)*; γGlu = O=C(O)[C@H](CCC(=O)[*:2])N[*:1]; Nle = CCCC[C@H](N)C(=O)O; AEEA = NCCOCCOCC(=O)O; Aib = CC(C)(N)C(=O)O

How the values were obtained:
Test in all cases: cell-based or functional assay
human GIP receptor = biological target: T1, human GIP receptor (human, UniProt P48546 22-466)
T1 sequence (looked up): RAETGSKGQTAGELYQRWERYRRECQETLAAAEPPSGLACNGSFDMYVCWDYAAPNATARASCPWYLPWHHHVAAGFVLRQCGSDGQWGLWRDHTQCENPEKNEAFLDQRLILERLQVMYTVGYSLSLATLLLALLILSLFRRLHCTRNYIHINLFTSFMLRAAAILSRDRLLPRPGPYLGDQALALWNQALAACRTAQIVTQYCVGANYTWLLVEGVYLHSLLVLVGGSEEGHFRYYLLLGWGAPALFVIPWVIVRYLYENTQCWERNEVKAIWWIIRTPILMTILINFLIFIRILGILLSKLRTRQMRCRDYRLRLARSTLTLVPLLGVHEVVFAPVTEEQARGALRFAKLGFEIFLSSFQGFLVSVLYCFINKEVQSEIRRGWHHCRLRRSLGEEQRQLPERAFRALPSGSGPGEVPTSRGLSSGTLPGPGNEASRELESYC

human GLP-1 receptor = human GLP-1 receptor (human, UniProt P43220 24-463)
human glucagon receptor = human glucagon receptor (human, UniProt P47871 26-477)
Chain of human glucagon receptor (P47871 26-477): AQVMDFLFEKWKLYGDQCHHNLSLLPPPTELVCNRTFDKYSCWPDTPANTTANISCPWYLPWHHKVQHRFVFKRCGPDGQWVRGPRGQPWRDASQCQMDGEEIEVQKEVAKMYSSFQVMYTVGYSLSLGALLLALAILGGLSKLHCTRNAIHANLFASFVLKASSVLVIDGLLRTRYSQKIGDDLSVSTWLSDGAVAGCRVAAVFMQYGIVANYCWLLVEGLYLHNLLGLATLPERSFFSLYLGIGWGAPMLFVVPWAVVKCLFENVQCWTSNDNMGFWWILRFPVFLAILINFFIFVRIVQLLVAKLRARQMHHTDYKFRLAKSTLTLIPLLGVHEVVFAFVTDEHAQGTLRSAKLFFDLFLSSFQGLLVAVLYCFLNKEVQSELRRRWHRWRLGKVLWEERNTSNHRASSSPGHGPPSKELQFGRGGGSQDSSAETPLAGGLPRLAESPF

## Y[Aib]EGTFISDYSIA[Nle]DKIRQQDFVK([γGlu-γGlu-γGlu-C18 diacid])WLLAQKGKEEDWKHNITQ
Human GIP receptor
  EC50, hGIP-R CRE Luc, 0.2% HSA: 4.47 pM
Human GLP-1 receptor
  EC50, hGLP-1-R CRE Luc, 0.2% HSA: > 100 nM
Human glucagon receptor
  EC50, hGcg-R CRE Luc, 0.2% HSA: > 100 nM

## Y[Aib]EGTFISDYSIA[Nle]DKIHQQDFVK([γGlu-γGlu-γGlu-C18 diacid])WLLAQKGKEDDWKHNITQ
Human GIP receptor
  EC50, hGIP-R CRE Luc, 0.2% HSA: 5.9 pM
Human GLP-1 receptor
  EC50, hGLP-1-R CRE Luc, 0.2% HSA: > 100 nM
Human glucagon receptor
  EC50, hGcg-R CRE Luc, 0.2% HSA: > 100 nM

## Y[Aib]EGTFISDYSIALDKIHQQDFVK([AEEA-AEEA-γGlu-C18 diacid])WLLAQKGKKNDWKHNITQ
Human GIP receptor
  EC50, hGIP-R CRE Luc, 0.2% HSA: 56 pM
Human GLP-1 receptor
  EC50, hGLP-1-R CRE Luc, 1% HSA (*): > 100 nM
Human glucagon receptor
  EC50, hGcg-R CRE Luc, 1% HSA (*): > 100 nM
